Assay results from paper PMC10511717.

Target: RANKL of the osteoclast differentiation medium (UniProt O35235)
Sequence of UniProt O35235 (O35235 whole entry): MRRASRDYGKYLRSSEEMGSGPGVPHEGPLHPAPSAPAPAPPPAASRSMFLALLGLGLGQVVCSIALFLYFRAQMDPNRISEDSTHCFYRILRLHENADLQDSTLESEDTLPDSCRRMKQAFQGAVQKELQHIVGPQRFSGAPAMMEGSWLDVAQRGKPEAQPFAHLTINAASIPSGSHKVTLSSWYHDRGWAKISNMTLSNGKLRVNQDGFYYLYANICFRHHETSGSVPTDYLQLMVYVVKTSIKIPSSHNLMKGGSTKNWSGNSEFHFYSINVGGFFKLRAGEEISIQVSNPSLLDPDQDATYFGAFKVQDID

osteoclast number (TRAP staining after 4 days) in primary murine osteoclast culture differentiated with M-CSF and RANKL; OMD at 10 and 40 ng/mL preincubated with RANKL and M-CSF (% reduction of osteoclast number): 50
B1: recombinant mouse OMD (natural protein)
chain: QYEAYRWDDDYDQEPNEDYDPEFQFHQNIEYGVPFYNNILGCAKECFCPTNFPTSMYCDNRKLKTIPIIPMHIQQLNLQFNDIEAVTANSFINATHLKEINLSHNKIKSQKIDYGVFAKLSNLQQLHLEHNNLEEFPFPLPKSLERLLLGYNEISILPTNAMDGLVNVTMLDLCYNHLSDSMLKEKTLSKMEKLMQLNLCNNRLESMPLGLPSSLMYLSLENNSISSIPDNYFDKLPKLHALRISHNKLEDIPYDIFNLSNLIELNVGHNKLKQAFYIPRNLEHLYLQNNEIESINVTMICPSPDPVHHHHLTYLRVDQNKLKEPISSYIFFCFPRIHSIYYGEQRSTNGETIQLKTQVFRSYQEEEEEDDHDSQDNTLEGQEVSDEHYNSHYYEMQEWQDTI
